# Assay results from patent publication US20250171562A1.
# B1: A1B3(G4S)4 (bispecific antibody)
# chain: EVQLLESGGGLVQPGGSLRLSCAASGFTFGNYDMAWVRQAPGKRPEWVSSIDTGGDITHYADSVKGRFTISRDNAKNTLYLQMNSLRPEDTAVYWCATDEEYALGPNEFDYYGQGTLVTVSGGGGSGGGGSGGGGSGGGGSDVQLQESGGGLVQAGGSLRLSCAASGFIFRLAGMSWVRQAPGKGFEWVSGITMDGSTTNYADSVKGRFTISRDNSKNRLYLQMNSLKPEDTAVYYCARGAKGGYNDPRGQGTQVTVS
# B2: A1A1(G4S)4 (VHH)
# chain: EVQLLESGGGLVQPGGSLRLSCAASGFTFGNYDMAWVRQAPGKRPEWVSSIDTGGDITHYADSVKGRFTISRDNAKNTLYLQMNSLRPEDTAVYWCATDEEYALGPNEFDYYGQGTLVTVSGGGGSGGGGSGGGGSGGGGSEVQLLESGGGLVQPGGSLRLSCAASGFTFGNYDMAWVRQAPGKRPEWVSSIDTGGDITHYADSVKGRFTISRDNAKNTLYLQMNSLRPEDTAVYWCATDEEYALGPNEFDYYGQGTLVTVS
# B3: sdAb F6 (VHH)
# VHH: DVQLQESGGGLVQAGGSLRLSCAASGLTFGSYDMGWYRQAPGKQRELVGRIRNDGITYYADSVKGRFTMSRDNAKNTVYLQMNSLKPEDTAVYYCAADGTGLGHYDYWGQGTQVTVS
# B4: sdAb B2 (VHH)
# VHH: QVQLVESGGGLVQAGGSLRLSCAVFGSTFSNNVADWYRQAPGKQRELVARISASGATREYGDSVKGRFTISRDDAKNTMYLQMNNLKPEDTAVYRCHKIEWEDLSRKDYWGQGTQVTVS
# B5: B1A1(G4S)4 (bispecific antibody)
# chain: QVQLQESGGGLVQTGGSLRLSCAVHGRTFSNTGMGWFRQAPGNERQFVAIISPSGTSTYYADSVKGRFTISRDPAKNTVYLQMNSLKMDDTAVYYCAASYGSNWSTLRHQRRNEYDAWGQGTQVAVSGGGGSGGGGSGGGGSGGGGSEVQLLESGGGLVQPGGSLRLSCAASGFTFGNYDMAWVRQAPGKRPEWVSSIDTGGDITHYADSVKGRFTISRDNAKNTLYLQMNSLRPEDTAVYWCATDEEYALGPNEFDYYGQGTLVTVS
# B6: sdAb F3 (VHH)
# VHH: DVQLQESGGGLVQAGGSLKLSCAASRGSLSRWDVAWFRQAPGKERSFVTRISWSGTTSYYADAVKGRFAISRDNAKNTVYLQMNSLKPEDTAVYYCAVALYGNRGYYDVNAHSYWGQGTQVTVS
# B7: sdAb F4 (VHH)
# VHH: DVQLQESGGGLVQAGGSLRLSCAVSGLSFSSMGWFRQPPGKEREFVAAISLYSGSTYYADSVKGRFTISSDNAKSTVYLQMNSLKPEDAAVYFCAADRQRTWSTFYASRQATYNYWGQGTQVTVTS
# B8: sdAb E1 (VHH)
# VHH: DVQLQESGGGLVQAGGSLRLSCLASGRTFTTTSGYNMGWFRQAPGKEREFVAGIKWVSGSNRAYAESVKGRFTISRDNAKNTVYLQMNSLKPEDTAVYYCAAATGQSYVPIREYEYVYWGQGTQVTVS
# B9: sdAb D2 (VHH)
# VHH: DVQLQESGGGLVEAGGSLRLSCVASGRTFSGWSMGWFRQAPGKEREFVAAISWVGSWIGGTVYSNSVKGRFTISRDNARTTVYLQMNSLKPEDTAVYFCAAANSETPRIFASEYDYWGQGTQVTVS
# B10: sdAb D1 (VHH)
# VHH: DVQLQESGGGLVQAGGSLRLSCAASGLTFSRCDMGWFRQAPGKEREFVARISANGASTHYADFVKGRFTISRDNAKNTVYLQMNYLKPEDTAVYICAAARVPVTWQLYDYWGQGTQVTVS
# B11: NIgG4B1A1(G4S)2 (Fc fusion)
# chain 1: QVQLQESGGGLVQTGGSLRLSCAVHGRTFSNTGMGWFRQAPGNERQFVAIISPSGTSTYYADSVKGRFTISRDPAKNTVYLQMNSLKMDDTAVYYCAASYGSNWSTLRHQRRNEYDAWGQGTQVAVSGGGGSGGGGSGPPCPPCPAPEFLGGPSVFLFPPKPKDTLMISRTPEVTCVVVDVSQEDPEVQFNWYVDGVEVHNAKTKPREEQFNSTYRVVSVLTVLHQDWLNGKEYKCKVSNKGLPSSIEKTISKAKGQPREPQVYTLPPCQEEMTKNQVSLWCLVKGFYPSDIAVEWESNGQPENNYKTTPPVLDSDGSFFLYSRLTVDKSRWQEGNVFSCSVMHEALHNHYTQKSLSLSLGK
# chain 2: EVQLLESGGGLVQPGGSLRLSCAASGFTFGNYDMAWVRQAPGKRPEWVSSIDTGGDITHYADSVKGRFTISRDNAKNTLYLQMNSLRPEDTAVYWCATDEEYALGPNEFDYYGQGTLVTVSSGGGGSGGGGSGPPCPPCPAPEFLGGPSVFLFPPKPKDTLMISRTPEVTCVVVDVSQEDPEVQFNWYVDGVEVHNAKTKPREEQFNSTYRVVSVLTVLHQDWLNGKEYKCKVSNKGLPSSIEKTISKAKGQPREPQVCTLPPSQEEMTKNQVSLSCAVKGFYPSDIAVEWESNGQPENNYKTTPPVLDSDGSFFLVSRLTVDKSRWQEGNVFSCSVMHEALHNHYTQKSLSLSLGK
# B12: sdAb B3 (VHH)
# VHH: DVQLQESGGGLVQAGGSLRLSCAASGFIFRLAGMSWVRQAPGKGFEWVSGITMDGSTTNYADSVKGRFTISRDNSKNRLYLQMNSLKPEDTAVYYCARGAKGGYNDPRGQGTQVTVS
# B13: A1D2(G4S)4 (bispecific antibody)
# chain: EVQLLESGGGLVQPGGSLRLSCAASGFTFGNYDMAWVRQAPGKRPEWVSSIDTGGDITHYADSVKGRFTISRDNAKNTLYLQMNSLRPEDTAVYWCATDEEYALGPNEFDYYGQGTLVTVSGGGGSGGGGSGGGGSGGGGSDVQLQESGGGLVEAGGSLRLSCVASGRTFSGWSMGWFRQAPGKEREFVAAISWVGSWIGGTVYSNSVKGRFTISRDNARTTVYLQMNSLKPEDTAVYFCAAANSETPRIFASEYDYWGQGTQVTVS
# B14: A1B1(G4S)4 (bispecific antibody)
# chain: EVQLLESGGGLVQPGGSLRLSCAASGFTFGNYDMAWVRQAPGKRPEWVSSIDTGGDITHYADSVKGRFTISRDNAKNTLYLQMNSLRPEDTAVYWCATDEEYALGPNEFDYYGQGTLVTVSGGGGSGGGGSGGGGSGGGGSQVQLQESGGGLVQTGGSLRLSCAVHGRTFSNTGMGWFRQAPGNERQFVAIISPSGTSTYYADSVKGRFTISRDPAKNTVYLQMNSLKMDDTAVYYCAASYGSNWSTLRHQRRNEYDAWGQGTQVAVS
# B15: sdAb B1 (VHH)
# VHH: QVQLQESGGGLVQTGGSLRLSCAVHGRTFSNTGMGWFRQAPGNERQFVAIISPSGTSTYYADSVKGRFTISRDPAKNTVYLQMNSLKMDDTAVYYCAASYGSNWSTLRHQRRNEYDAWGQGTQVAVS
# B16: B3A1(G4S)4 (bispecific antibody)
# chain: DVQLQESGGGLVQAGGSLRLSCAASGFIFRLAGMSWVRQAPGKGFEWVSGITMDGSTTNYADSVKGRFTISRDNSKNRLYLQMNSLKPEDTAVYYCARGAKGGYNDPRGQGTQVTVSGGGGSGGGGSGGGGSGGGGSEVQLLESGGGLVQPGGSLRLSCAASGFTFGNYDMAWVRQAPGKRPEWVSSIDTGGDITHYADSVKGRFTISRDNAKNTLYLQMNSLRPEDTAVYWCATDEEYALGPNEFDYYGQGTLVTVS
# B17: B2A1(G4S)4 (bispecific antibody)
# chain: QVQLVESGGGLVQAGGSLRLSCAVFGSTFSNNVADWYRQAPGKQRELVARISASGATREYGDSVKGRFTISRDDAKNTMYLQMNNLKPEDTAVYRCHKIEWEDLSRKDYWGQGTQVTVSGGGGSGGGGSGGGGSGGGGSEVQLLESGGGLVQPGGSLRLSCAASGFTFGNYDMAWVRQAPGKRPEWVSSIDTGGDITHYADSVKGRFTISRDNAKNTLYLQMNSLRPEDTAVYWCATDEEYALGPNEFDYYGQGTLVTVS
# B18: D2A1(G4S)4 (bispecific antibody)
# chain: DVQLQESGGGLVEAGGSLRLSCVASGRTFSGWSMGWFRQAPGKEREFVAAISWVGSWIGGTVYSNSVKGRFTISRDNARTTVYLQMNSLKPEDTAVYFCAAANSETPRIFASEYDYWGQGTQVTVSGGGGSGGGGSGGGGSGGGGSEVQLLESGGGLVQPGGSLRLSCAASGFTFGNYDMAWVRQAPGKRPEWVSSIDTGGDITHYADSVKGRFTISRDNAKNTLYLQMNSLRPEDTAVYWCATDEEYALGPNEFDYYGQGTLVTVS
# B19: NIgG4B1A1(RS) (Fc fusion)
# chain 1: QVQLQESGGGLVQTGGSLRLSCAVHGRTFSNTGMGWFRQAPGNERQFVAIISPSGTSTYYADSVKGRFTISRDPAKNTVYLQMNSLKMDDTAVYYCAASYGSNWSTLRHQRRNEYDAWGQGTQVAVSRSGPPCPPCPAPEFLGGPSVFLFPPKPKDTLMISRTPEVTCVVVDVSQEDPEVQFNWYVDGVEVHNAKTKPREEQFNSTYRVVSVLTVLHQDWLNGKEYKCKVSNKGLPSSIEKTISKAKGQPREPQVYTLPPCQEEMTKNQVSLWCLVKGFYPSDIAVEWESNGQPENNYKTTPPVLDSDGSFFLYSRLTVDKSRWQEGNVFSCSVMHEALHNHYTQKSLSLSLGK
# chain 2: EVQLLESGGGLVQPGGSLRLSCAASGFTFGNYDMAWVRQAPGKRPEWVSSIDTGGDITHYADSVKGRFTISRDNAKNTLYLQMNSLRPEDTAVYWCATDEEYALGPNEFDYYGQGTLVTVSSRSGPPCPPCPAPEFLGGPSVFLFPPKPKDTLMISRTPEVTCVVVDVSQEDPEVQFNWYVDGVEVHNAKTKPREEQFNSTYRVVSVLTVLHQDWLNGKEYKCKVSNKGLPSSIEKTISKAKGQPREPQVCTLPPSQEEMTKNQVSLSCAVKGFYPSDIAVEWESNGQPENNYKTTPPVLDSDGSFFLVSRLTVDKSRWQEGNVFSCSVMHEALHNHYTQKSLSLSLGK
# B20: A1B2(G4S)4 (bispecific antibody)
# chain: EVQLLESGGGLVQPGGSLRLSCAASGFTFGNYDMAWVRQAPGKRPEWVSSIDTGGDITHYADSVKGRFTISRDNAKNTLYLQMNSLRPEDTAVYWCATDEEYALGPNEFDYYGQGTLVTVSGGGGSGGGGSGGGGSGGGGSQVQLVESGGGLVQAGGSLRLSCAVFGSTFSNNVADWYRQAPGKQRELVARISASGATREYGDSVKGRFTISRDDAKNTMYLQMNNLKPEDTAVYRCHKIEWEDLSRKDYWGQGTQVTVS
# Molecular target: mixture of three Der p 2 specific recombinant human IgE clones H10, H12, P4E (human) (UniProt P01854)
# Sequence (P01854 other isoform, or with tags, fused parts or gaps): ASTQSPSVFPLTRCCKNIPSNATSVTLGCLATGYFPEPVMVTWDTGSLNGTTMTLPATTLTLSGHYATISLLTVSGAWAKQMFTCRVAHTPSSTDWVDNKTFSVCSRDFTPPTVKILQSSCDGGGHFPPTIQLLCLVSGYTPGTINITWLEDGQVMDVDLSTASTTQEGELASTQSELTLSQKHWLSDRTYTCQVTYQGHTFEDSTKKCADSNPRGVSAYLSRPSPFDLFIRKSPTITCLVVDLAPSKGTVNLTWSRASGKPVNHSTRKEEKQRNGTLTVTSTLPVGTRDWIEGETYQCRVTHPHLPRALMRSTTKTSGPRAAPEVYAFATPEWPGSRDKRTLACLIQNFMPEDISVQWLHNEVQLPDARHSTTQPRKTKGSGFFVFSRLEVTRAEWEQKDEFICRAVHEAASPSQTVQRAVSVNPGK
# Assay: RBL-SX38 IgE displacement, FACS
Binder,EC50,Max effect/effect 1 µM
B1,0.4 nM,99%
B2,402 nM,45%
B3,,26%
B4,,23%
B5,1.4 nM,100%
B6,,5.6%
B7,,17%
B8,,0%
B9,,22%
B10,,12%
B11,3 nM,99%
B12,,7%
B13,4.3 nM,98%
B14,1.4 nM,100%
B15,,54%
B16,2 nM,100%
B17,5.8 nM,92%
B18,78.7 nM,83%
B19,3 nM,99%
B20,0.8 nM,100%
